The source of these data is patent US20210347865A1 (STATEN BIOTECHNOLOGY B V, published 2021).

For experiment [1], the target named is T1, native human ApoC3 (human, UniProt P02656 21-99, biotinylated in the captured-antigen assays (Tables 6 and 8); sites not stated).
T1 construct: also called nhuApoC3; native huApoC3
The experiment is described as follows: SPR, biotinylated antigen captured on SA chip, scFv periplasmic extract injected, pH 7.4.

For experiment [2], the target named is T2, recombinant cynomolgus ApoC3 (cynomolgus monkey, UniProt P18659 21-99, biotinylated in the captured-antigen assays (Tables 6 and 8); sites not stated).
T2 construct: No cleavage site is stated, so none is applied; also called rcyApoC3; bio-rcyApoC3
T2 sequence (P18659 21-99 limits assumed): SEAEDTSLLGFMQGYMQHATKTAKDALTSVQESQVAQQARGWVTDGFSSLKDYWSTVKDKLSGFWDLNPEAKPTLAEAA
Described as above.

The target of experiment [3] is T1, native human ApoC3. Put plainly: SPR, antigen immobilized on CM5 chip, IgG as analyte, pH 7.4. A general note: SPR reads the build-up and loss of mass on a sensor chip optically.
Experiment [4] has as its target T2, recombinant cynomolgus ApoC3. The experiment is described as above.
The target in experiment [5] is T1, native human ApoC3. Put plainly: SPR, biotinylated antigen captured on streptavidin chip, IgG as analyte, pH 7.4.
Experiment [6] addresses T1, native human ApoC3. The experiment is described as follows: SPR, IgG captured via anti-human Fc, ApoC3 analyte 100 nM. The method, then: (§1) Immobilization was performed in accordance with the method provided by Biacore in the NHS/EDC kit (Biacore AB). Briefly, after activation of the chip, a solution of 30 μg/ml anti-human Fcγ antibody in 10 mM acetate buffer with pH 5.0 was injected until the surface density reached approximately 10,000 RU. […] Following antibody capture, 100 μl of HBS-EP buffer was injected and passed through the flow cells at 30 μl/min. To bind target, 60 μl of 400 nM, 200 nM, 100 nM, or 50 nM ApoC3 protein in HBS-EP buffer was injected. An off-rate wash was performed by injection of HBS-EP buffer at 30 μl/min for 5 min. After dissociation, the flow cell surfaces were regenerated by injecting 20 μl of 10 mM glycine at pH 1.5.
(§2) The resulting sensorgrams were analysed with BIAevaluation 4.1 software using the Langmuir 1:1 binding model to derive binding kinetics. Data was zero adjusted and the reference cell sensorgrams were subtracted. A no-analyte blank assay was used for double referencing the sensorgrams corresponding to nhuApoC3 and rcyApoC3 injections. The dissociation and association phase sensorgrams were fitted separately for the 4 different concentration curves. Sensorgrams were excluded from the fitting if maximum RU values were below the limit of detection (i.e., <5 RU). SPR signals were too low to calculate kinetic parameters for […].

Experiment [7] addresses T2, recombinant cynomolgus ApoC3. The description is as above. The method, then: as §1, §2
Experiment [8] has as its target T1, native human ApoC3. The experiment is described as follows: SPR, IgG captured via anti-human Fc, ApoC3 analyte 50 nM. The protocol:
as §1, §2

Experiment [9] deals with T1, native human ApoC3. Put plainly: SPR, IgG captured via anti-human Fc, ApoC3 analyte 400 nM. The method, then:
as §1, §2

In experiment [10] the target is T2, recombinant cynomolgus ApoC3. The description is as above. The method, then: as §1, §2
Experiment [11] addresses T1, native human ApoC3. The experiment is described as follows: SPR, IgG captured via anti-human Fc, ApoC3 analyte 200 nM. The method, then: as §1, §2
The target of experiment [12] is T2, recombinant cynomolgus ApoC3. The description is as above. The method, then:
as §1, §2

For experiment [13] the target is unchanged. Put plainly: SPR, biotinylated antigen captured on streptavidin chip, IgG as analyte, pH 7.4.

Where a chain is given by its changes, count along the chain named.

T1 sequence (P02656 21-99): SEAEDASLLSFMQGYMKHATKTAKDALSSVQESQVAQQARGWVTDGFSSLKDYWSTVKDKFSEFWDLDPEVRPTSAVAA

B1: 29B03 scFv (scFv, part only; not given: scFv linker, domain order, c-myc tag, V domains shown, not shown: another chain or arm of the molecule; small tags and cut ends)
VH: QLQLVESGGGLVQPGGSLRLSCAASGFTFGTYSMRWVRQVPRKALEWVSSISTDGGGTAYRDSVKGRFTISRDNAKNTLYLQMNNLKPEDTAIYYCVIAGYSDWGQGTQVTVSS
VL: DVVLTQTPGSLSVVPGESASISCKAGQNLVHPDGKTYLYWLLQKPGQSPQRLIYQVSNRDSGVPDRFTGSGSGTDFTLKISGVKVEDAGVYYCAQGTYWPKTFGQGTKLEIK
The term koff denotes the first-order rate constant of dissociation. Take B1: in the experiment with native human ApoC3 [1], the R0 came to 930 RU and the koff was 0.000572 s⁻¹. In experiment [2], the R0 came to 122 RU and the koff was found to be 0.0418 s⁻¹.

B2: 30D10 scFv (scFv, part only; not given: scFv linker, domain order, c-myc tag, V domains shown, not shown: another chain or arm of the molecule; small tags and cut ends)
VH: B1 VH
VL: DVVLTQTPGSLSVVPGESASISCTASQSLRHSDGRTYLYWLRQKPGQSPQRLIKRVSTRDPGVPDRFTGSGSGTDFTLKISGVRAEDAGVYYCAQGTYYPLTFGQGTKVELK
In the experiment with native human ApoC3 [1], B2 registered an R0 of 695 RU and an off-rate (koff) of 0.00123 s⁻¹. Also, the koff in experiment [2] came out at 0.0436 s⁻¹.

B3: 29A06 scFv (scFv, part only; not given: scFv linker, domain order, c-myc tag, V domains shown, not shown: another chain or arm of the molecule; small tags and cut ends)
VH: B1 VH
VL: B1 VL with G26S, P32S, D33N, D60G, G62E, V85A
Regarding B3, the figures for the R0 (in the experiment with native human ApoC3 [1]; in experiment [2]) were 1010 RU and 125 RU, respectively. Further, the koff stood at 0.00162 s⁻¹ in the experiment with native human ApoC3 [1] and 0.0406 s⁻¹ in [2].

B4: 29F10 scFv (scFv, part only; not given: scFv linker, domain order, c-myc tag, V domains shown, not shown: another chain or arm of the molecule; large carriers; small tags and cut ends)
VH: B1 VH
VL: B1 VL with S18P, I21V, G26S, N28S, D60G, K79E, V85A
In the experiment with native human ApoC3 [1], B4 came in with an R0 of 808 RU and an off-rate constant (koff) of 0.00144 s⁻¹. Also, in [2], the R0 came to 52 RU and the off-rate (koff) amounted to 0.059 s⁻¹.

B5: 29G11 scFv (scFv, part only; not given: scFv linker, domain order, c-myc tag, V domains shown, not shown: another chain or arm of the molecule; small tags and cut ends)
VH: B1 VH
VL: DVVLTQTPGSLSVVPGGSASISCKASQSLVYSDGKTYLYWLRQKPGQSPQRLIYQVSNRPSGVPDRFTGSGSGTDFTLKISGVKAEDAGVYYCAQDTYSTKTFGQGTKLEIK
In the experiment with native human ApoC3 [1], B5 returned an R0 of 809 RU and a dissociation rate constant (koff) of 0.00633 s⁻¹. For the same molecule, in experiment [2], the R0 turned out to be 92.7 RU and the koff is 0.00714 s⁻¹.

B6: 30D10 IgG (antibody, V domains shown)
VH: B1 VH
VL: B2 VL
In general, Kd refers to the free concentration of one partner at which half of the binding sites on the other are occupied at equilibrium, for simple one-to-one binding. The term kon denotes the second-order rate constant of association. For B6, in the experiment with native human ApoC3 [3], the equilibrium dissociation constant (Kd) was found to be 0.15 nM, the koff amounted to 0.000231 s⁻¹ and the kon stood at 1.5e+06 M⁻¹ s⁻¹. The binding result in [4] is given as “no binding”. In the experiment with native human ApoC3 [5], the Kd turned out to be 0.1 nM, the dissociation rate constant (koff) is 0.000126 s⁻¹ and the kon is 1.29e+06 M⁻¹ s⁻¹.

B7: 29G02 scFv (scFv, part only; not given: scFv linker, domain order, c-myc tag, V domains shown, not shown: another chain or arm of the molecule; small tags and cut ends)
VH: B1 VH
VL: B5 VL with G17E, S26T, Y31H, S32I, R42L, N58T, P60D, S70A, T74A, D75E
For B7, the R0 was determined as 833 RU with native human ApoC3 [1] and 102 RU in [2]. The koff in the experiment with native human ApoC3 [1] worked out at 0.00435 s⁻¹; in [2], 0.00721 s⁻¹.

B8: 5E5 WT scFv (scFv, part only; not given: scFv linker, domain order, c-myc tag, V domains shown, not shown: another chain or arm of the molecule; small tags and cut ends)
VH: B1 VH
VL: ATMLTQSPGSLSVVPGESASISCKTSQGLVHSDGKTYFYWFLQKPGQSPQQLIYQVSNRASGVPDRFTGSGSGTDFTLKISGVKAEDAGVYYCAQGTYYPHTFGSGTRLEIK
In the experiment with native human ApoC3 [1], B8 had an R0 of 854 RU and a koff of 0.000964 s⁻¹. The dissociation rate constant (koff) in [2] was 0.0391 s⁻¹.

B9: 29A05 IgG (antibody, V domains shown)
VH: B1 VH
VL: B1 VL with G26S, N28S, H31Y, P32S
In the case of B9, the dissociation constant Kd turned out to be 6.42 nM with native human ApoC3 [6]; 296 nM in experiment [7]; 6.01 nM in the experiment with native human ApoC3 [8]; 0.16 nM in the experiment with native human ApoC3 [3]; 0.21 nM in [4]; 7.36 nM in the experiment with native human ApoC3 [9]. The Kd in experiment [10] was found to be 365 nM; with native human ApoC3 [11], 6.87 nM; in experiment [12], 359 nM; in the experiment with native human ApoC3 [5] it was 0.13 nM; in experiment [13], 0.65 nM. The koff amounted to 0.00132 s⁻¹ with native human ApoC3 [6]; 0.00887 s⁻¹ in experiment [7]; 0.00126 s⁻¹ with native human ApoC3 [8]; 8.2e-05 s⁻¹ with native human ApoC3 [3]; 6.4e-05 s⁻¹ in experiment [4]; 0.00133 s⁻¹ with native human ApoC3 [9]. For the same molecule, the koff came to 0.00983 s⁻¹ in [10]; 0.00133 s⁻¹ with native human ApoC3 [11]; 0.00875 s⁻¹ in experiment [12]; 6.3e-05 s⁻¹ in the experiment with native human ApoC3 [5]; 0.000175 s⁻¹ in [13]. The kon with native human ApoC3 [6] turned out to be 206000 M⁻¹ s⁻¹; in experiment [7], 30000 M⁻¹ s⁻¹; in the experiment with native human ApoC3 [8] it was 210000 M⁻¹ s⁻¹; in the experiment with native human ApoC3 [3], 520000 M⁻¹ s⁻¹; in experiment [4], 310000 M⁻¹ s⁻¹; in the experiment with native human ApoC3 [9], 181000 M⁻¹ s⁻¹. Also, the kon in [10] stood at 26900 M⁻¹ s⁻¹; in the experiment with native human ApoC3 [11], 194000 M⁻¹ s⁻¹; in [12] it was 24400 M⁻¹ s⁻¹; with native human ApoC3 [5], 500000 M⁻¹ s⁻¹; in [13], 270000 M⁻¹ s⁻¹.

B10: 29A05 scFv (scFv, part only; not given: scFv linker, domain order, c-myc tag, V domains shown, not shown: another chain or arm of the molecule; small tags and cut ends)
VH: B1 VH
VL: B1 VL with G26S, N28S, H31Y, P32S
In the experiment with native human ApoC3 [1], B10 had an R0 of 545 RU and a koff of 0.0069 s⁻¹. Further, in experiment [2], the R0 was found to be 145 RU and the off-rate constant (koff) turned out to be 0.0146 s⁻¹.

B11: 29A06 IgG (antibody, V domains shown)
VH: B1 VH
VL: B1 VL with G26S, P32S, D33N, D60G, G62E, V85A
With B11, the Kd with native human ApoC3 [6] is 0.814 nM; with native human ApoC3 [8], 0.755 nM; with native human ApoC3 [3], 0.07 nM; in experiment [4], 0.15 nM; in the experiment with native human ApoC3 [9], 0.973 nM; in experiment [10], 919 nM. In addition, the dissociation constant Kd with native human ApoC3 [11] came to 0.91 nM; in the experiment with native human ApoC3 [5], 0.04 nM; in experiment [13] it was 0.46 nM. Further, the koff was 0.000317 s⁻¹ with native human ApoC3 [6]; 0.000314 s⁻¹ with native human ApoC3 [8]; 6.5e-05 s⁻¹ with native human ApoC3 [3]; 7.5e-05 s⁻¹ in [4]; 0.000327 s⁻¹ with native human ApoC3 [9]; 0.0207 s⁻¹ in [10]. The off-rate constant (koff) came to 0.00032 s⁻¹ with native human ApoC3 [11], 4.2e-05 s⁻¹ in the experiment with native human ApoC3 [5] and 0.000169 s⁻¹ in experiment [13]. In addition, the kon with native human ApoC3 [6] came to 390000 M⁻¹ s⁻¹; with native human ApoC3 [8] it was 416000 M⁻¹ s⁻¹; with native human ApoC3 [3] it was 950000 M⁻¹ s⁻¹; in experiment [4] it was 500000 M⁻¹ s⁻¹; with native human ApoC3 [9], 336000 M⁻¹ s⁻¹; in [10] it was 22500 M⁻¹ s⁻¹. Further, the on-rate constant (kon) came to 351000 M⁻¹ s⁻¹ in the experiment with native human ApoC3 [11], 960000 M⁻¹ s⁻¹ with native human ApoC3 [5] and 370000 M⁻¹ s⁻¹ in [13].
